# Laboratory results as given in the supplement of paper PMC10567573.
# B1: PKD2L1 (parent)
# chain: YSGGGYYLDLPGSRQGSAEALRAL
# Variants of: B1
# Assay: protein stability index of a GFP-peptide fusion (GPS, HEK-293T) (PSI 1-6); higher = more stable
# Details: c terminus: a fixed tail appended
# 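Note: lentivirally expressed fusions sorted by FACS into six bins by GFP to DsRed ratio, PSI derived from sequencing read proportions per bin multiplied by bin number.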
row,Variant,protein stability index
1,YSGGGYYLPLPGSRQGSAEALRAL,1.66
2,YSGGGYYLQLPGSRQGSAEALRAL,1.24
3,YSGGGYYLRLPGSRQGSAEALRAL,2
4,YSGGGYYLSLPGSRQGSAEALRAL,1.83
5,YSGGGYYLTLPGSRQGSAEALRAL,3.34
6,YSGGGYYLWLPGSRQGSAEALRAL,2.87
7,YSGGGYYLYLPGSRQGSAEALRAL,4.13
8,YSGGGYYLDAPGSRQGSAEALRAL,2.27
9,YSGGGYYLDCPGSRQGSAEALRAL,2.31
10,YSGGGYYLDDPGSRQGSAEALRAL,2.02
11,YSGGGYYLDEPGSRQGSAEALRAL,2.69
12,YSGGGYYLDFPGSRQGSAEALRAL,2.09
13,YSGGGYYLDGPGSRQGSAEALRAL,1.56
14,YSGGGYYLDHPGSRQGSAEALRAL,1.58
15,YSGGGYYLDIPGSRQGSAEALRAL,2.33
16,YSGGGYYLDKPGSRQGSAEALRAL,1.73
17,YSGGGYYLDMPGSRQGSAEALRAL,1.66
18,YSGGGYYLDNPGSRQGSAEALRAL,1.6
19,YSGGGYYLDPPGSRQGSAEALRAL,1.9
20,YSGGGYYLDQPGSRQGSAEALRAL,1.27
21,YSGGGYYLDRPGSRQGSAEALRAL,2.97
22,YSGGGYYLDSPGSRQGSAEALRAL,1.46
23,YSGGGYYLDTPGSRQGSAEALRAL,2.35
24,YSGGGYYLDVPGSRQGSAEALRAL,2.17

row,Variant,protein stability index
1,YSGGGYYLDWPGSRQGSAEALRAL,1.14
2,YSGGGYYLDYPGSRQGSAEALRAL,1.81
3,YSGGGYYLDLAGSRQGSAEALRAL,1.89
4,YSGGGYYLDLCGSRQGSAEALRAL,1.82
5,YSGGGYYLDLDGSRQGSAEALRAL,1.21
6,YSGGGYYLDLEGSRQGSAEALRAL,1.29
7,YSGGGYYLDLFGSRQGSAEALRAL,2.12
8,YSGGGYYLDLGGSRQGSAEALRAL,3.43
9,YSGGGYYLDLHGSRQGSAEALRAL,1.44
10,YSGGGYYLDLIGSRQGSAEALRAL,1.94
11,YSGGGYYLDLKGSRQGSAEALRAL,1.91
12,YSGGGYYLDLLGSRQGSAEALRAL,2.54
13,YSGGGYYLDLMGSRQGSAEALRAL,2.68
14,YSGGGYYLDLNGSRQGSAEALRAL,1.97
15,YSGGGYYLDLQGSRQGSAEALRAL,2.53
16,YSGGGYYLDLRGSRQGSAEALRAL,3.15
17,YSGGGYYLDLSGSRQGSAEALRAL,1.73
18,YSGGGYYLDLTGSRQGSAEALRAL,1.86
19,YSGGGYYLDLVGSRQGSAEALRAL,1.85
20,YSGGGYYLDLWGSRQGSAEALRAL,2.52
21,YSGGGYYLDLYGSRQGSAEALRAL,2
22,YSGGGYYLDLPASRQGSAEALRAL,2.05
23,YSGGGYYLDLPCSRQGSAEALRAL,1.24
24,YSGGGYYLDLPDSRQGSAEALRAL,2.09

row,Variant,protein stability index
1,YSGGGYYLDLPESRQGSAEALRAL,2
2,YSGGGYYLDLPFSRQGSAEALRAL,1.57
3,YSGGGYYLDLPHSRQGSAEALRAL,1.96
4,YSGGGYYLDLPISRQGSAEALRAL,1.55
5,YSGGGYYLDLPKSRQGSAEALRAL,1.74
6,YSGGGYYLDLPLSRQGSAEALRAL,2.15
7,YSGGGYYLDLPMSRQGSAEALRAL,2.54
8,YSGGGYYLDLPNSRQGSAEALRAL,2.36
9,YSGGGYYLDLPPSRQGSAEALRAL,2.05
10,YSGGGYYLDLPQSRQGSAEALRAL,1.95
11,YSGGGYYLDLPRSRQGSAEALRAL,1.59
12,YSGGGYYLDLPSSRQGSAEALRAL,2.21
13,YSGGGYYLDLPTSRQGSAEALRAL,1.88
14,YSGGGYYLDLPVSRQGSAEALRAL,2.22
15,YSGGGYYLDLPWSRQGSAEALRAL,2.39
16,YSGGGYYLDLPYSRQGSAEALRAL,1.49
17,YSGGGYYLDLPGARQGSAEALRAL,1.45
18,YSGGGYYLDLPGCRQGSAEALRAL,2.23
19,YSGGGYYLDLPGDRQGSAEALRAL,1.12
20,YSGGGYYLDLPGERQGSAEALRAL,1.61
21,YSGGGYYLDLPGFRQGSAEALRAL,1.92
22,YSGGGYYLDLPGGRQGSAEALRAL,2.58
23,YSGGGYYLDLPGHRQGSAEALRAL,1.58
24,YSGGGYYLDLPGIRQGSAEALRAL,1.25

row,Variant,protein stability index
1,YSGGGYYLDLPGKRQGSAEALRAL,1.82
2,YSGGGYYLDLPGLRQGSAEALRAL,1.5
3,YSGGGYYLDLPGMRQGSAEALRAL,2.4
4,YSGGGYYLDLPGNRQGSAEALRAL,1.38
5,YSGGGYYLDLPGPRQGSAEALRAL,1.85
6,YSGGGYYLDLPGQRQGSAEALRAL,2.28
7,YSGGGYYLDLPGRRQGSAEALRAL,2.38
8,YSGGGYYLDLPGTRQGSAEALRAL,1.82
9,YSGGGYYLDLPGVRQGSAEALRAL,2.3
10,YSGGGYYLDLPGWRQGSAEALRAL,1.78
11,YSGGGYYLDLPGYRQGSAEALRAL,1.96
12,YSGGGYYLDLPGSAQGSAEALRAL,3.28
13,YSGGGYYLDLPGSCQGSAEALRAL,1.55
14,YSGGGYYLDLPGSDQGSAEALRAL,1.82
15,YSGGGYYLDLPGSEQGSAEALRAL,1.75
16,YSGGGYYLDLPGSFQGSAEALRAL,1.32
17,YSGGGYYLDLPGSGQGSAEALRAL,2.24
18,YSGGGYYLDLPGSHQGSAEALRAL,1.84
19,YSGGGYYLDLPGSIQGSAEALRAL,2.55
20,YSGGGYYLDLPGSKQGSAEALRAL,2.56
21,YSGGGYYLDLPGSLQGSAEALRAL,2.71
22,YSGGGYYLDLPGSMQGSAEALRAL,2.08
23,YSGGGYYLDLPGSNQGSAEALRAL,1.63
24,YSGGGYYLDLPGSPQGSAEALRAL,1.37

row,Variant,protein stability index
1,YSGGGYYLDLPGSQQGSAEALRAL,1.55
2,YSGGGYYLDLPGSSQGSAEALRAL,1.57
3,YSGGGYYLDLPGSTQGSAEALRAL,2.15
4,YSGGGYYLDLPGSVQGSAEALRAL,1.91
5,YSGGGYYLDLPGSWQGSAEALRAL,2.36
6,YSGGGYYLDLPGSYQGSAEALRAL,2
7,YSGGGYYLDLPGSRAGSAEALRAL,2.41
8,YSGGGYYLDLPGSRCGSAEALRAL,3.34
9,YSGGGYYLDLPGSRDGSAEALRAL,1.98
10,YSGGGYYLDLPGSREGSAEALRAL,2.16
11,YSGGGYYLDLPGSRFGSAEALRAL,1.61
12,YSGGGYYLDLPGSRGGSAEALRAL,1.47
13,YSGGGYYLDLPGSRHGSAEALRAL,1.28
14,YSGGGYYLDLPGSRIGSAEALRAL,3.59
15,YSGGGYYLDLPGSRKGSAEALRAL,2.5
16,YSGGGYYLDLPGSRLGSAEALRAL,1.74
17,YSGGGYYLDLPGSRMGSAEALRAL,2.81
18,YSGGGYYLDLPGSRNGSAEALRAL,1.94
19,YSGGGYYLDLPGSRPGSAEALRAL,2.03
20,YSGGGYYLDLPGSRRGSAEALRAL,2.27
21,YSGGGYYLDLPGSRSGSAEALRAL,1.83
22,YSGGGYYLDLPGSRTGSAEALRAL,1.21
23,YSGGGYYLDLPGSRVGSAEALRAL,2.99
24,YSGGGYYLDLPGSRWGSAEALRAL,1.73

row,Variant,protein stability index
1,YSGGGYYLDLPGSRYGSAEALRAL,2.17
2,YSGGGYYLDLPGSRQASAEALRAL,1.94
3,YSGGGYYLDLPGSRQCSAEALRAL,1.86
4,YSGGGYYLDLPGSRQDSAEALRAL,2.02
5,YSGGGYYLDLPGSRQESAEALRAL,1.92
6,YSGGGYYLDLPGSRQFSAEALRAL,1.38
7,YSGGGYYLDLPGSRQHSAEALRAL,2.66
8,YSGGGYYLDLPGSRQISAEALRAL,2.3
9,YSGGGYYLDLPGSRQKSAEALRAL,1.97
10,YSGGGYYLDLPGSRQLSAEALRAL,1.57
11,YSGGGYYLDLPGSRQMSAEALRAL,1.02
12,YSGGGYYLDLPGSRQNSAEALRAL,1.51
13,YSGGGYYLDLPGSRQPSAEALRAL,1.92
14,YSGGGYYLDLPGSRQQSAEALRAL,2
15,YSGGGYYLDLPGSRQRSAEALRAL,1.98
16,YSGGGYYLDLPGSRQSSAEALRAL,2.27
17,YSGGGYYLDLPGSRQTSAEALRAL,1.84
18,YSGGGYYLDLPGSRQVSAEALRAL,1.77
19,YSGGGYYLDLPGSRQWSAEALRAL,2.5
20,YSGGGYYLDLPGSRQYSAEALRAL,2.13
21,YSGGGYYLDLPGSRQGAAEALRAL,1.6
22,YSGGGYYLDLPGSRQGCAEALRAL,1.39
23,YSGGGYYLDLPGSRQGDAEALRAL,1.92
24,YSGGGYYLDLPGSRQGEAEALRAL,2

row,Variant,protein stability index
1,YSGGGYYLDLPGSRQGFAEALRAL,1.98
2,YSGGGYYLDLPGSRQGGAEALRAL,3.5
3,YSGGGYYLDLPGSRQGHAEALRAL,2.36
4,YSGGGYYLDLPGSRQGIAEALRAL,1.75
5,YSGGGYYLDLPGSRQGKAEALRAL,1.78
6,YSGGGYYLDLPGSRQGLAEALRAL,2.13
7,YSGGGYYLDLPGSRQGMAEALRAL,2.3
8,YSGGGYYLDLPGSRQGNAEALRAL,2.01
9,YSGGGYYLDLPGSRQGPAEALRAL,2.32
10,YSGGGYYLDLPGSRQGQAEALRAL,3.08
11,YSGGGYYLDLPGSRQGRAEALRAL,1.41
12,YSGGGYYLDLPGSRQGTAEALRAL,2
13,YSGGGYYLDLPGSRQGVAEALRAL,1.61
14,YSGGGYYLDLPGSRQGWAEALRAL,1.98
15,YSGGGYYLDLPGSRQGYAEALRAL,2.03
16,YSGGGYYLDLPGSRQGSCEALRAL,2.16
17,YSGGGYYLDLPGSRQGSDEALRAL,2.65
18,YSGGGYYLDLPGSRQGSEEALRAL,1.71
19,YSGGGYYLDLPGSRQGSFEALRAL,1.57
20,YSGGGYYLDLPGSRQGSGEALRAL,1.81
21,YSGGGYYLDLPGSRQGSHEALRAL,1.61
22,YSGGGYYLDLPGSRQGSIEALRAL,1.55
23,YSGGGYYLDLPGSRQGSKEALRAL,2.75
24,YSGGGYYLDLPGSRQGSLEALRAL,2.12

row,Variant,protein stability index
1,YSGGGYYLDLPGSRQGSMEALRAL,1.88
2,YSGGGYYLDLPGSRQGSNEALRAL,1.86
3,YSGGGYYLDLPGSRQGSPEALRAL,1.79
4,YSGGGYYLDLPGSRQGSQEALRAL,2.15
5,YSGGGYYLDLPGSRQGSREALRAL,1.71
6,YSGGGYYLDLPGSRQGSSEALRAL,1.5
7,YSGGGYYLDLPGSRQGSTEALRAL,1.35
8,YSGGGYYLDLPGSRQGSVEALRAL,1.49
9,YSGGGYYLDLPGSRQGSWEALRAL,1.61
10,YSGGGYYLDLPGSRQGSYEALRAL,1.75
11,YSGGGYYLDLPGSRQGSAAALRAL,1.64
12,YSGGGYYLDLPGSRQGSACALRAL,2.27
13,YSGGGYYLDLPGSRQGSADALRAL,1.81
14,YSGGGYYLDLPGSRQGSAFALRAL,2.33
15,YSGGGYYLDLPGSRQGSAGALRAL,2.02
16,YSGGGYYLDLPGSRQGSAHALRAL,1.42
17,YSGGGYYLDLPGSRQGSAIALRAL,1.45
18,YSGGGYYLDLPGSRQGSAKALRAL,1.98
19,YSGGGYYLDLPGSRQGSALALRAL,1.84
20,YSGGGYYLDLPGSRQGSAMALRAL,2.09
